{"source": "patent US20250019439A1", "about": "(Adimab, published 2025)", "key": {"ADI-70326": {"biological_target": "T1, ADI-70326", "T1 construct": "anti-CD3 antibody made in CHO cells, captured by anti-human Fc", "T1 sequence (VH, as listed by the source limits assumed, chain 1 of 2)": "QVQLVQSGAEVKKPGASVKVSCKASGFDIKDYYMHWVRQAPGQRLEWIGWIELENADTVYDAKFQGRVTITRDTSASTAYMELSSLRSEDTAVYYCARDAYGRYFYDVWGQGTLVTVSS", "T1 sequence (VL, as listed by the source limits assumed, chain 2 of 2)": "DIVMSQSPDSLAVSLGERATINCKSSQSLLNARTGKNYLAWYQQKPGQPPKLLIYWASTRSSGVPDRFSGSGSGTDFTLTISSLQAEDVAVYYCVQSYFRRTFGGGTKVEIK", "test": "SPR Carterra, CHO anti-ID", "experimental": "(§1) Kinetic analysis was conducted at 25° C. in an HBSTE running buffer system (Carterra Cat #3630) using a Carterra LSA (Carterra USA, Salt Lake City, UT). The sample compartment was maintained at 20° C. for the duration of each experiment.\n(§2) For antibody capture experiments, a goat anti-human Fc antibody (Jackson ImmunoResearch) was covalently coupled to an HC30M sensor chip surface via standard amine coupling (1:1 EDC:NHS) and then blocked with ethanolamine (1.0 M, pH 8.5). Covalent coupling steps were performed in 25 mM MES buffer (Carterra, Cat #3625) plus 0.05% Tween20. The anti-CD3 antibodies (100 nM in running buffer) were flowed over discrete regions of interest on the chip surface for 5 minutes. […] Dissociation of the anti-idiotype antibodies was monitored for 300s. Several blank buffer samples were injected over the entire chip surface at the start of each non-regenerative kinetic cycle. The preceding blank buffer injection was used for blank surface subtraction. At the end of each non-regenerative kinetic cycle, all surfaces were regenerated via two 30s injections of 10 mM glycine, pH 1.7.\n(§3) In Tables 10A-10C, anti-CD3 antibodies are listed by ADI number or CTL number in the first column. […] CTL-62223 is mosunetuzumab, CTL-62227 is odronextamab, CTL-62228 is glofitamab, and CTL-62240 is ONO-4685. […] “W.B.” means weak binding under the conditions of this assay and thus a KD was unable to be assigned. “N.B.” means no binding under the conditions of this assay."}, "ADI-22523 IgG [1]": {"biological_target": "T2, ADI-22523 IgG", "T2 construct": "anti-CD3 IgG", "T2 sequence (VH, as listed by the source limits assumed, chain 1 of 2)": "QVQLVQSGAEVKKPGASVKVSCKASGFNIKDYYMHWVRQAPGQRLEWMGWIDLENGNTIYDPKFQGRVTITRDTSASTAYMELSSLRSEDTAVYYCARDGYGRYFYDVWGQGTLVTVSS", "T2 sequence (VL, as listed by the source limits assumed, chain 2 of 2)": "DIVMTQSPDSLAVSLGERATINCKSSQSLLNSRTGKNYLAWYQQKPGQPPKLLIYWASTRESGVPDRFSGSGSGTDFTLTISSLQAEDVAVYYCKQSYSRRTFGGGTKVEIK", "test": "BLI; tip ADI-34145 IgG, solution anti-CD3 IgG", "experimental": "(§4) ForteBio affinity measurements were performed generally as previously described (Estep et al., MAbs. 2013 5(2):270-8). Briefly, ForteBio affinity measurements were performed by loading antibody IgG or Fabs on-line onto AHC sensors. Sensors were equilibrated off-line in assay buffer for 30 minutes and then monitored on-line for 60 seconds for baseline establishment. For avid binding measurement, sensors with loaded antibodies were exposed to IgG or Fab solutions for 3 minutes, afterwards they were transferred to assay buffer for 3 minutes for off-rate measurement. Kinetics data were fit using a 1:1 binding model in the data analysis software provided by ForteBio to obtain equilibrium dissociation constant (KD=koff/kₒₙ) values. In each column, tip-immobilized antibodies are listed first and solution antibodies second.\n(§5) In each column, tip-immobilized antibodies are listed first and solution antibodies second."}, "ADI-26954 IgG": {"biological_target": "T3, ADI-26954 IgG", "T3 construct": "anti-CD3 IgG", "T3 sequence (VH, as listed by the source limits assumed, chain 1 of 2)": "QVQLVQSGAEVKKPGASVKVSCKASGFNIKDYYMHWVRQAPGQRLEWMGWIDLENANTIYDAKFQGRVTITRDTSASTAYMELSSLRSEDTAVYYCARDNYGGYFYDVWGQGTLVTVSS", "T3 sequence (VL, as listed by the source limits assumed, chain 2 of 2)": "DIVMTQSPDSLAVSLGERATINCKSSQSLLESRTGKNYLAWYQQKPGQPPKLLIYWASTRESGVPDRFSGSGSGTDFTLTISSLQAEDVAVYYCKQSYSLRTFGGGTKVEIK", "test": "BLI; tip ADI-34145 IgG, solution anti-CD3 IgG", "experimental": "as §4, §5"}, "ADI-26906 IgG [2]": {"biological_target": "T4, ADI-26906 IgG", "T4 construct": "anti-CD3 IgG", "T4 sequence (VH, as listed by the source limits assumed, chain 1 of 2)": "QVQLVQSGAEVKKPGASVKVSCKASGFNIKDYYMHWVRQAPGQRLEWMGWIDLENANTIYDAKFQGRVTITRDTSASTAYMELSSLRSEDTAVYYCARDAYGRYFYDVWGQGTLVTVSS", "T4 sequence (VL, as listed by the source limits assumed, chain 2 of 2)": "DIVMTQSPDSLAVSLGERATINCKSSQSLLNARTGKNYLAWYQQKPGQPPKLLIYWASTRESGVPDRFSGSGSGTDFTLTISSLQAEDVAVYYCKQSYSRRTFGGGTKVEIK", "test": "BLI; tip ADI-34145 IgG, solution anti-CD3 IgG", "experimental": "as §4, §5"}, "ADI-26913 IgG [3]": {"biological_target": "T5, ADI-26913 IgG", "T5 construct": "anti-CD3 IgG", "T5 sequence (VH, as listed by the source limits assumed, chain 1 of 2)": "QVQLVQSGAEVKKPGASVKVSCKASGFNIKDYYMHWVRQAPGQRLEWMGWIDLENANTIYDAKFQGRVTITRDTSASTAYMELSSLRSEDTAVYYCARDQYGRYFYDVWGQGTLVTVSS", "test": "BLI; tip ADI-34145 IgG, solution anti-CD3 IgG", "experimental": "as §4, §5"}, "ADI-26920 IgG [4]": {"biological_target": "T6, ADI-26920 IgG", "T6 construct": "anti-CD3 IgG", "T6 sequence (VH, as listed by the source limits assumed, chain 1 of 2)": "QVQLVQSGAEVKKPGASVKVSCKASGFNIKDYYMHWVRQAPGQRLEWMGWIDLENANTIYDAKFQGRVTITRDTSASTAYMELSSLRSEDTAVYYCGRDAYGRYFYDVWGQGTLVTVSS", "T6 sequence (VL, as listed by the source limits assumed, chain 2 of 2)": "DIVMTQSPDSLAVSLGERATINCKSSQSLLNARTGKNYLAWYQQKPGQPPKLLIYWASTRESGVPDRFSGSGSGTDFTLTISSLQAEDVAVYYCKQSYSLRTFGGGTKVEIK", "test": "BLI; tip ADI-34145 IgG, solution anti-CD3 IgG", "experimental": "as §4, §5"}, "ADI-26916 IgG [5]": {"biological_target": "T7, ADI-26916 IgG", "T7 construct": "anti-CD3 IgG", "T7 sequence (VH, as listed by the source, chain 1 of 2)": "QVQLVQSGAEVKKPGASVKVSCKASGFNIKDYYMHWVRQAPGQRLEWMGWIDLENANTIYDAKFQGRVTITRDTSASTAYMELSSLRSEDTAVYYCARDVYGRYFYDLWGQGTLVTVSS", "test": "BLI; tip ADI-34145 IgG, solution anti-CD3 IgG", "experimental": "as §4, §5"}, "CTL-62227": {"biological_target": "T8, CTL-62227", "T8 construct": "also called odronextamab", "T8 sequence (VH, as listed by the source, chain 1 of 2)": "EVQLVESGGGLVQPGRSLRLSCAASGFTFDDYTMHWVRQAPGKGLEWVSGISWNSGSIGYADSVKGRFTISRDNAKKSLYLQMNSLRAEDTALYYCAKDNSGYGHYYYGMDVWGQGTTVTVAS", "T8 sequence (VL, as listed by the source, chain 2 of 2)": "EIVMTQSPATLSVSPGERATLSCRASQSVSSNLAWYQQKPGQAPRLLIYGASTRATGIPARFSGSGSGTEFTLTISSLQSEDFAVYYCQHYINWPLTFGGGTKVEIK", "test": "SPR Carterra, CHO anti-ID", "experimental": "as §1, §2, §3"}, "CTL-62228": {"biological_target": "T9, CTL-62228", "T9 construct": "also called glofitamab", "test": "SPR Carterra, CHO anti-ID", "experimental": "as §1, §2, §3"}, "CTL-62240": {"biological_target": "T10, CTL-62240", "T10 construct": "also called ONO-4685", "T10 sequence (VH, as listed by the source, chain 1 of 2)": "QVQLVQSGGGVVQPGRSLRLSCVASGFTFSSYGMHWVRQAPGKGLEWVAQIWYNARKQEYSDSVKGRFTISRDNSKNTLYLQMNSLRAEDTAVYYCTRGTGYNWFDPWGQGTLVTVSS", "T10 sequence (VL, as listed by the source, chain 2 of 2)": "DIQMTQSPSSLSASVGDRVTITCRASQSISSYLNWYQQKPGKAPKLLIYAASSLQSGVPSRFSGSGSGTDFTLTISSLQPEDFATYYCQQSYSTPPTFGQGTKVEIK", "test": "SPR Carterra, CHO anti-ID", "experimental": "as §1, §2, §3"}, "ADI-67450": {"biological_target": "T11, ADI-67450", "T11 construct": "anti-CD3 antibody made in CHO cells, captured by anti-human Fc", "T11 sequence (VH, as listed by the source limits assumed, chain 1 of 2)": "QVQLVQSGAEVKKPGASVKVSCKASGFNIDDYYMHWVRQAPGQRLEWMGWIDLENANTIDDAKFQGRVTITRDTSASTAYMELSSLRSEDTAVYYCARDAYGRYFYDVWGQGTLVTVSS", "test": "SPR Carterra avidity, CHO anti-ID", "experimental": "as §1, §2, §3"}, "ADI-76358": {"biological_target": "T12, ADI-76358", "T12 construct": "anti-CD3 antibody made in CHO cells, captured by anti-human Fc", "T12 sequence (VH, as listed by the source, chain 1 of 2)": "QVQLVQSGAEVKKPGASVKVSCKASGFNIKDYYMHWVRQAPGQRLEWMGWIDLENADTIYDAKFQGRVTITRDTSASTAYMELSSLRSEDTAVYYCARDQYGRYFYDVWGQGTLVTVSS", "test": "SPR Carterra avidity, CHO anti-ID", "experimental": "as §1, §2, §3"}, "ADI-22523 IgG [6]": {"biological_target": "T2, ADI-22523 IgG", "test": "BLI; tip anti-CD3 IgG, solution ADI-34134 IgG", "experimental": "as §4\n(§6) CTL-19613 is an IgG1 antibody prepared with anti-CD3 variable domains corresponding with those of clone 12C described in United States Publication Number US 2010/0183615 (e.g., see paragraphs 469-479 and FIG. 25 thereof), which also make up the CD3 binding domain of the bispecific antibody pasotuxizumab. […] In each column, tip-immobilized antibodies are listed first and solution antibodies second."}, "ADI-26927 IgG": {"biological_target": "T13, ADI-26927 IgG", "T13 construct": "anti-CD3 IgG", "T13 sequence (VH, as listed by the source limits assumed, chain 1 of 2)": "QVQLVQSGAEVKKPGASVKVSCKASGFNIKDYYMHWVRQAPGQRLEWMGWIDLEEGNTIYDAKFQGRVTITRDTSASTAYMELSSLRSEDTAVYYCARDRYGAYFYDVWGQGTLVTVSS", "test": "BLI; tip anti-CD3 IgG, solution ADI-34134 IgG", "experimental": "as §4, §6"}, "ADI-26928 IgG": {"biological_target": "T14, ADI-26928 IgG", "T14 construct": "anti-CD3 IgG", "T14 sequence (VH, as listed by the source limits assumed, chain 1 of 2)": "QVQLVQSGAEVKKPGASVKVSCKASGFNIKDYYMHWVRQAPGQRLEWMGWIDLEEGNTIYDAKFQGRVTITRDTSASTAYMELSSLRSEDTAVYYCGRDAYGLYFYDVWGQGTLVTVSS", "test": "BLI; tip anti-CD3 IgG, solution ADI-34134 IgG", "experimental": "as §4, §6"}, "ADI-26941 IgG": {"biological_target": "T15, ADI-26941 IgG", "T15 construct": "anti-CD3 IgG", "T15 sequence (VH, as listed by the source limits assumed, chain 1 of 2)": "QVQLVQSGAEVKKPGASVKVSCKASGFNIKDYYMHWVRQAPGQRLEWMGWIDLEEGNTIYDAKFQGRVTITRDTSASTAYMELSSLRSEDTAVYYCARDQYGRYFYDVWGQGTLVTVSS", "T15 sequence (VL, as listed by the source limits assumed, chain 2 of 2)": "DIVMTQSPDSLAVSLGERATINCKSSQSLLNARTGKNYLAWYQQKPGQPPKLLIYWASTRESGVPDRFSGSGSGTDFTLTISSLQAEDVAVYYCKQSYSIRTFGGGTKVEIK", "test": "BLI; tip anti-CD3 IgG, solution ADI-34134 IgG", "experimental": "as §4, §6"}, "ADI-26906 IgG [7]": {"biological_target": "T4, ADI-26906 IgG", "test": "BLI; tip anti-CD3 IgG, solution ADI-34134 IgG", "experimental": "as §4, §6"}, "ADI-26913 IgG [8]": {"biological_target": "T5, ADI-26913 IgG", "test": "BLI; tip anti-CD3 IgG, solution ADI-34134 IgG", "experimental": "as §4, §6"}, "ADI-26920 IgG [9]": {"biological_target": "T6, ADI-26920 IgG", "test": "BLI; tip anti-CD3 IgG, solution ADI-34134 IgG", "experimental": "as §4, §6"}, "ADI-26921 IgG": {"biological_target": "T16, ADI-26921 IgG", "T16 construct": "anti-CD3 IgG", "T16 sequence (VH, as listed by the source limits assumed, chain 1 of 2)": "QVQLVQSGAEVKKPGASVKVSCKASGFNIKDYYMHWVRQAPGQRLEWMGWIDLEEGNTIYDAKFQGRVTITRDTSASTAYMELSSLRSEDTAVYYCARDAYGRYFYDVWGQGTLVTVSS", "test": "BLI; tip anti-CD3 IgG, solution ADI-34134 IgG", "experimental": "as §4, §6"}, "ADI-26916 IgG [10]": {"biological_target": "T7, ADI-26916 IgG", "test": "BLI; tip anti-CD3 IgG, solution ADI-34134 IgG", "experimental": "as §4, §6"}, "ADI-26916 IgG [11]": {"biological_target": "T7, ADI-26916 IgG", "test": "SPR Carterra avidity, yeast anti-ID, *koff limit", "procedure,_shortened": "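Goat anti-human Fc was amine-coupled to an HC30M sensor chip, then anti-CD3 antibodies at 100 nM were flowed over discrete spots for 5 min. Anti-idiotype antibodies were run in non-regenerative kinetic cycles at 25° C in HBSTE, with 300s dissociation. Blank-subtracted sensorgrams were fitted 1:1.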"}}, "data": [{"binder": "ADI-34145 IgG (antibody, V domains shown, anti-ID IgG) VH: EVQLLESGGGLVQPGGSLRLSCAASGFTFSSYAMSWVRQAPGKGLEWVSTISGSGGSTYYADSVKGRFTISRDNSKNTLYLQMNSLRAEDTAVYYCARLGGRRGSGSSYYYYYGMDVWGQGTTVTVSS VL: not shown", "values": [{"measurement": "binding result", "setting": "ADI-70326", "result": "no binding (tested: up to 200 nM)"}, {"measurement": "Kd", "setting": "ADI-22523 IgG [1]", "result": 2.72, "unit": "nM"}, {"measurement": "Kd", "setting": "ADI-26954 IgG", "result": 7.75, "unit": "nM"}, {"measurement": "Kd", "setting": "ADI-26906 IgG [2]", "result": 8.39, "unit": "nM"}, {"measurement": "Kd", "setting": "ADI-26913 IgG [3]", "result": 8.1, "unit": "nM"}, {"measurement": "Kd", "setting": "ADI-26920 IgG [4]", "result": 14.3, "unit": "nM"}, {"measurement": "Kd", "setting": "ADI-26916 IgG [5]", "result": 48, "unit": "nM"}]}, {"binder": "ADI-34134 IgG (antibody, V domains shown) VH: QVQLVQSGAEVKKPGSSVKVSCKASGGTFSSYAISWVRQAPGQGLEWMGGIIPIFGTANYAQKFQGRVTITADESTSTAYMELSSLRSEDTAVYYCARGAPNYYGSGGYDDGWFDPWGQGTLVTVSS VL: EIVLTQSPGTLSLSPGERATLSCRASQSVSSDYLAWYQQKPGQAPRLLIYGASSRATGIPDRFSGSGSGTDFTLTISRLEPEDFAVYYCQQFGRVPTFGGGTKVEIK", "values": [{"measurement": "binding result", "setting": "CTL-62227", "result": "no binding (tested: up to 200 nM)"}, {"measurement": "binding result", "setting": "CTL-62228", "result": "no binding (tested: up to 200 nM)"}, {"measurement": "binding result", "setting": "CTL-62240", "result": "no binding (tested: up to 200 nM)"}, {"measurement": "Kd", "setting": "ADI-67450", "result": 0.68, "unit": "nM"}, {"measurement": "Kd", "setting": "ADI-76358", "result": 0.54, "unit": "nM"}, {"measurement": "Kd", "setting": "ADI-22523 IgG [6]", "result": 0.37, "unit": "nM"}, {"measurement": "Kd", "setting": "ADI-26927 IgG", "result": 0.45, "unit": "nM"}, {"measurement": "Kd", "setting": "ADI-26928 IgG", "result": 0.85, "unit": "nM"}, {"measurement": "Kd", "setting": "ADI-26941 IgG", "result": 1.13, "unit": "nM"}, {"measurement": "Kd", "setting": "ADI-26906 IgG [7]", "result": 0.43, "unit": "nM"}, {"measurement": "Kd", "setting": "ADI-26913 IgG [8]", "result": 0.77, "unit": "nM"}, {"measurement": "Kd", "setting": "ADI-26920 IgG [9]", "result": 0.46, "unit": "nM"}, {"measurement": "Kd", "setting": "ADI-26921 IgG", "result": 0.57, "unit": "nM"}, {"measurement": "Kd", "setting": "ADI-26916 IgG [10]", "result": 1.04, "unit": "nM"}, {"measurement": "Kd", "setting": "ADI-26916 IgG [11]", "result": 6.3, "unit": "nM"}]}]}
